Laboratory results taken from patent US10117916B2, “Peptides and combination of peptides for use in immunotherapy against CLL and other cancers” (immatics biotechnologies GmbH, priority 2015, dated 2018).

Target: HLA-A*02:01 (Homo sapiens, UniProt P04439, D140Y/D185E/D98H/E176V/E277Q/G131W/G231S/I119V/I121R/I166T/I218V/L300P/L318F/N151K/N90K/P208A/P217A/Q86G/Q94H/R138H/R169H/T345S)
Experiment: MHC binding assay: UV-ligand exchange with β2m ELISA (peptide exchange yield)
Conditions: MHC class I binding score; binding to HLA-A*02:01 ranged by peptide exchange yield (UV-ligand exchange, β2m ELISA)
Text: Candidate peptides for T cell based therapies according to the present invention were further tested for their MHC binding capacity (affinity). The individual peptide-MHC complexes were produced by UV-ligand exchange, where a UV-sensitive peptide is cleaved upon UV-irradiation, and exchanged with the peptide of interest as analyzed. Only peptide candidates that can effectively bind and stabilize the peptide-receptive MHC molecules prevent dissociation of the MHC complexes. To determine the yield of the exchange reaction, an ELISA was performed based on the detection of the light chain (β2m) of stabilized MHC complexes. The assay was performed as generally described in Rodenko et al. (Rodenko et al., 2006).
96 well MAXISorp plates (NUNC) were coated over night with 2 ug/ml streptavidin in PBS at room temperature, washed 4× and blocked for 1 h at 37° C. in 2% BSA containing blocking buffer. Refolded HLA-A*02:01/MLA-001 monomers served as standards, covering the range of 15-500 ng/ml. Peptide-MHC monomers of the UV-exchange reaction were diluted 100 fold in blocking buffer. Samples were incubated for 1 h at 37° C., washed four times, incubated with 2 ug/ml HRP conjugated anti-β2m for 1 h at 37° C., washed again and detected with TMB solution that is stopped with […]. Absorption was measured at 450 nm. Candidate peptides that show a high exchange yield (preferably higher than 50%, most preferred higher than 75%) are generally preferred for a generation and production of antibodies or fragments thereof, and/or T cell receptors or fragments thereof, as they show sufficient avidity to the MHC molecules and prevent dissociation of the MHC complexes.

| Substance | Peptide Exchange |
| --- | --- |
| 89 (ILDFGTFQL; listed as Homo sapiens) [compound 89] | ″+++″ (≥50 = +++) |
| 90 (VIADLGLIRV; listed as Homo sapiens) [compound 90] | ″+++″ (≥50 = +++) |
| 91 (ILDLNTYNV; listed as Homo sapiens) [compound 91] | ″+++″ (≥50 = +++) |
| 92 (ILEPLNPLL; listed as Homo sapiens) [compound 92] | ″+++″ (≥50 = +++) |
| 93 (ILFNTQINI; listed as Homo sapiens) [compound 93] | ″+++″ (≥50 = +++) |
| 94 (ILFPLRFTL; listed as Homo sapiens) [compound 94] | ″+++″ (≥50 = +++) |
| 95 (ILGYMAHEHKV; listed as Homo sapiens) [compound 95] | ″++″ (≥20% = ++) |
| 97 (LLFATQITL; listed as Homo sapiens) [compound 97] | ″++″ (≥20% = ++) |
| 98 (SLIKYFLFV; listed as Homo sapiens) [compound 98] | ″+″ (≥10% = +) |
| 99 (ILIFHSVAL; listed as Homo sapiens) [compound 99] | ″+++″ (≥50 = +++) |
| 103 (KLGGTPAPA; listed as Homo sapiens) [compound 103] | ″++″ (≥20% = ++) |
| 104 (KLILLDTPLFL; listed as Homo sapiens) [compound 104] | ″+++″ (≥50 = +++) |
| 105 (KLMNDIADI; listed as Homo sapiens) [compound 105] | ″++″ (≥20% = ++) |
| 106 (FMASHLDYL; listed as Homo sapiens) [compound 106] | ″+++″ (≥50 = +++) |
| 107 (ILYNLYDLL; listed as Homo sapiens) [compound 107] | ″+++″ (≥50 = +++) |
| 108 (VIYTLIHYI; listed as Homo sapiens) [compound 108] | ″+++″ (≥50 = +++) |
| 109 (KLWEGLTELV; listed as Homo sapiens) [compound 109] | ″+++″ (≥50 = +++) |
| 110 (LLFDHLEPMEL; listed as Homo sapiens) [compound 110] | ″+++″ (≥50 = +++) |
| 111 (KLWNVAAPLYL; listed as Homo sapiens) [compound 111] | ″+++″ (≥50 = +++) |

| Substance | Peptide Exchange |
| --- | --- |
| 113 (KVPAEEVLVAV; listed as Homo sapiens) [compound 113] | ″+++″ (≥50 = +++) |
| 115 (LLFDKLYLL; listed as Homo sapiens) [compound 115] | ″+++″ (≥50 = +++) |
| 116 (LLIGATMQV; listed as Homo sapiens) [compound 116] | ″+++″ (≥50 = +++) |
| 117 (LLILENILL; listed as Homo sapiens) [compound 117] | ″+++″ (≥50 = +++) |
| 118 (RLLILENILL; listed as Homo sapiens) [compound 118] | ″+++″ (≥50 = +++) |
| 119 (VLPAEFFEV; listed as Homo sapiens) [compound 119] | ″+++″ (≥50 = +++) |
| 120 (AIDAALTSV; listed as Homo sapiens) [compound 120] | ″+++″ (≥50 = +++) |
| 121 (RLYEITIEV; listed as Homo sapiens) [compound 121] | ″++++″ (≥75% = ++++) |
| 122 (LLIPVVPGV; listed as Homo sapiens) [compound 122] | ″+++″ (≥50 = +++) |
| 123 (LLLAEAELLTL; listed as Homo sapiens) [compound 123] | ″++″ (≥20% = ++) |
| 124 (LLLEETEKQAV; listed as Homo sapiens) [compound 124] | ″+++″ (≥50 = +++) |
| 125 (LLLEIGEVGKLFV; listed as Homo sapiens) [compound 125] | ″+++″ (≥50 = +++) |
| 126 (LLPEGGITAI; listed as Homo sapiens) [compound 126] | ″+++″ (≥50 = +++) |
| 127 (LLPTAPTTV; listed as Homo sapiens) [compound 127] | ″+++″ (≥50 = +++) |
| 128 (LLSEEEYHL; listed as Homo sapiens) [compound 128] | ″+++″ (≥50 = +++) |
| 130 (LLVLIPVYL; listed as Homo sapiens) [compound 130] | ″+″ (≥10% = +) |
| 131 (LQALEVLKI; listed as Homo sapiens) [compound 131] | ″+″ (≥10% = +) |
| 132 (LVYEAIIMV; listed as Homo sapiens) [compound 132] | ″+++″ (≥50 = +++) |
| 133 (YLLSGDISEA; listed as Homo sapiens) [compound 133] | ″+++″ (≥50 = +++) |

Continued, values first:

| Peptide Exchange | Substance |
| --- | --- |
| ″++++″ (≥75% = ++++) | 134 (MLLEHGITLV; listed as Homo sapiens) [compound 134] |
| ″+″ (≥10% = +) | 135 (MTAGFSTIAGSV; listed as Homo sapiens) [compound 135] |
| ″++″ (≥20% = ++) | 136 (NLDKLWTLV; listed as Homo sapiens) [compound 136] |
| ″+++″ (≥50 = +++) | 137 (NLIKTVIKL; listed as Homo sapiens) [compound 137] |
| ″+++″ (≥50 = +++) | 138 (NLLDIDAPVTV; listed as Homo sapiens) [compound 138] |
| ″+++″ (≥50 = +++) | 139 (NLTDVVEKL; listed as Homo sapiens) [compound 139] |
| ″+++″ (≥50 = +++) | 140 (QIAELPATSV; listed as Homo sapiens) [compound 140] |
| ″++″ (≥20% = ++) | 141 (QILSEIVEA; listed as Homo sapiens) [compound 141] |
| ″++″ (≥20% = ++) | 142 (QLDEPAPQV; listed as Homo sapiens) [compound 142] |
| ″+++″ (≥50 = +++) | 143 (QLLDTYFTL; listed as Homo sapiens) [compound 143] |
| ″+++″ (≥50 = +++) | 145 (SALDTITTV; listed as Homo sapiens) [compound 145] |
| ″+++″ (≥50 = +++) | 146 (SIIEGPIIKL; listed as Homo sapiens) [compound 146] |
| ″+++″ (≥50 = +++) | 147 (SILETVATL; listed as Homo sapiens) [compound 147] |
| ″+++″ (≥50 = +++) | 148 (SIVASLITV; listed as Homo sapiens) [compound 148] |
| ″+++″ (≥50 = +++) | 149 (SLDNGGYYI; listed as Homo sapiens) [compound 149] |
| ″+++″ (≥50 = +++) | 150 (SLFDQPLSII; listed as Homo sapiens) [compound 150] |
| ″+++″ (≥50 = +++) | 151 (SLFDSAYGA; listed as Homo sapiens) [compound 151] |

| Peptide Exchange | Substance |
| --- | --- |
| ″+++″ (≥50 = +++) | 152 (SLIRILQTI; listed as Homo sapiens) [compound 152] |
| ″+++″ (≥50 = +++) | 153 (SLLAELHVL; listed as Homo sapiens) [compound 153] |
| ″+++″ (≥50 = +++) | 155 (SLMLEVPAL; listed as Homo sapiens) [compound 155] |
| ″+++″ (≥50 = +++) | 156 (SLNIGDVQL; listed as Homo sapiens) [compound 156] |
| ″+++″ (≥50 = +++) | 157 (SLNIRDFTM; listed as Homo sapiens) [compound 157] |
| ″+++″ (≥50 = +++) | 158 (SLPEAPLDV; listed as Homo sapiens) [compound 158] |
| ″+++″ (≥50 = +++) | 159 (SLQEEKLIYV; listed as Homo sapiens) [compound 159] |
| ″+++″ (≥50 = +++) | 160 (SLSFLVPSL; listed as Homo sapiens) [compound 160] |
| ″+++″ (≥50 = +++) | 161 (SMDDGMINV; listed as Homo sapiens) [compound 161] |
| ″++″ (≥20% = ++) | 162 (SMKDDLENV; listed as Homo sapiens) [compound 162] |
| ″+++″ (≥50 = +++) | 163 (SQLDISEPYKV; listed as Homo sapiens) [compound 163] |
| ″+++″ (≥50 = +++) | 164 (SVHKGFAFV; listed as Homo sapiens) [compound 164] |
| ″++″ (≥20% = ++) | 165 (TLDDDLDTV; listed as Homo sapiens) [compound 165] |
| ″++″ (≥20% = ++) | 166 (TLDPNQVSL; listed as Homo sapiens) [compound 166] |
| ″+++″ (≥50 = +++) | 167 (TLDTSKLYV; listed as Homo sapiens) [compound 167] |
| ″++++″ (≥75% = ++++) | 168 (YLLDQSFVM; listed as Homo sapiens) [compound 168] |
